{"source": "patent US12636342B2", "about": "“TARS derived from Akkermansia muciniphila or fragment thereof, and use thereof” (KOREA RESEARCH INSTITUTE OF BIOSCIENCE AND BIOTECHNOLOGY, priority 2020, dated 2026)", "molecules": {"B1": {"name": "Akkermansia muciniphila-derived threonyl-tRNA synthetase (TARS) (protein)", "chain": "MSEHKERKTLEERQQMSDLERLRHSCAHVLATAICRLWPDAQLAGGPAVDNGFYYDVELDHRISTEDFERIEEEMKKVVKENQVFQKEVISRADAMKMAESGELGALGPRSEPSRFKIDLLNDIPEDEEISLYRNGDFTDLCAGPHVGRTGNCKAFKIMSVASAFYKGDKNRPMLQRIYGTCFPNRTQLDEHLERLEEARRRDHRKLGRELGLFCIDESVGQGLILWKPKGALIRRSLQDFITEELDKLGYSQVYTPNIGKLDLYRTSGHFPYYQESQYAPIPERDAMEKLSQEGASCAELFNGLATGTIEGYMLKPMNCPHHIKIYANDAHSYRDLPVRLAEFGTVYRWEQSGELGGMTRVRGFTQDDAHIFCTPDQLAGEIRQCLGIVKTIFGTLGMTDYRVRLSMRDPESDKYVGSPENWDKAEQALREAAEWLGADYSEEAGEAAFYGPKIDFIVRDAIGREWQLGTVQVDYNLPERFDLHYTGADNKPHRPVMVHRAPFGSMERFTGLLIEHFEGKFPTWLSPEQVRVLPISDKVTDVAAAHRTALAARGVRVTVDETPDKIGAKIRNARLDRVPYMLVLGQREAEDGTVSVRHRDKGDLGAMPFEQFADLVAREIAERHISPVI", "modifications": "Akkermansia muciniphila TARS"}}, "key": {"[1]": {"test_system": "TLR2-KO mice with DSS-induced colitis", "test": "DSS-induced colitis in TLR2-deficient mice", "format": "in vivo, mouse", "description": "We assessed the role of TLR2 in AmTARS function in vivo. To verify whether the binding between AmTARS and TLR2 actually acted on the anti-inflammatory effect of AmTARS, an inflammatory bowel disease mouse model was prepared from TLR2-deficient mice by way of the same method as in Example 5 and investigated for anti-inflammatory efficacy after the administration of AmTARS. TLR2-KO mice were slightly more susceptible to DSS-induced colitis than WT mice, as reported previously (Rakoff-Nahoum et al., 2004)."}, "human macrophages (THP1)": {"test_system": "human macrophages (THP1)", "test": "ELISA of immune cytokine secretion in THP1 under normal conditions", "format": "cell-based", "settings": "THP1, 0.1, 0.2, 0.5 μM, 24 h", "description": "Specifically, mouse bone marrow-derived macrophages (BMDMs) as mouse-derived immune cells were extracted from the mouse thighbone and shinbone, and then cultured in DMEM containing 10% fetal bovine serum (FBS) and antibiotics. Human macrophages (THP1) as human-derived immune cells were cultured in RPMI media containing 10% FBS and antibiotics.\nThe cultured cells were treated with AmTARS at 0.1 μM, 0.2 μM, and 0.5 μM for 24 h to obtain cell cultures. For cell removal, the media were centrifuged at 500×g for 10 min to obtain supernatants, which were then analyzed using an ELISA set (mouse interleukin (IL)-6, mouse IL-10, mouse tumor necrosis factor (TNF)-α, human IL-6, human IL-10, human TNF-α; BD Biosciences) to investigate the secretion of mouse- and human-derived immune cytokines."}, "mouse adipocyte 3T3-L1": {"test_system": "mouse adipocyte 3T3-L1", "test": "Immunoblot of insulin signaling in 3T3-L1 with PMA or TNF-α induced inflammation", "format": "cell-based", "settings": "0.5 μM AmTARS", "description": "Next, to determine whether the anti-inflammatory function of AmTARS affected the regulation of metabolic disease-associated intracellular signaling, immunoblot analysis was performed using the mouse adipocyte 3T3-L1.\nSpecifically, 3T3-L1 cells were cultured in DMEM containing 10% bovine calf serum (BCS) and antibiotics under conditions of 5% CO2 and 37° C. The cells were treated with 2 μM phorbol 12-myristate 13-acetate (PMA) or 20 ng/ml TNF-α to create an inflammatory environment in the cultured cells. The cells were treated with 100 nM insulin and 0.5 μM AmTARS for 24 h, and then changes in intracellular signaling were investigated."}, "[2]": {"target": "T1, Toll-like receptor 2 (TLR2) (Homo sapiens, UniProt O60603)", "T1 construct": "13; TLR2; 17; pIRES-FLAG; FLAG; Mammal; FLAG (C); expressed in transfected cells; host or cells: HEK 293T (human)", "T1 sequence (O60603 21-784)": "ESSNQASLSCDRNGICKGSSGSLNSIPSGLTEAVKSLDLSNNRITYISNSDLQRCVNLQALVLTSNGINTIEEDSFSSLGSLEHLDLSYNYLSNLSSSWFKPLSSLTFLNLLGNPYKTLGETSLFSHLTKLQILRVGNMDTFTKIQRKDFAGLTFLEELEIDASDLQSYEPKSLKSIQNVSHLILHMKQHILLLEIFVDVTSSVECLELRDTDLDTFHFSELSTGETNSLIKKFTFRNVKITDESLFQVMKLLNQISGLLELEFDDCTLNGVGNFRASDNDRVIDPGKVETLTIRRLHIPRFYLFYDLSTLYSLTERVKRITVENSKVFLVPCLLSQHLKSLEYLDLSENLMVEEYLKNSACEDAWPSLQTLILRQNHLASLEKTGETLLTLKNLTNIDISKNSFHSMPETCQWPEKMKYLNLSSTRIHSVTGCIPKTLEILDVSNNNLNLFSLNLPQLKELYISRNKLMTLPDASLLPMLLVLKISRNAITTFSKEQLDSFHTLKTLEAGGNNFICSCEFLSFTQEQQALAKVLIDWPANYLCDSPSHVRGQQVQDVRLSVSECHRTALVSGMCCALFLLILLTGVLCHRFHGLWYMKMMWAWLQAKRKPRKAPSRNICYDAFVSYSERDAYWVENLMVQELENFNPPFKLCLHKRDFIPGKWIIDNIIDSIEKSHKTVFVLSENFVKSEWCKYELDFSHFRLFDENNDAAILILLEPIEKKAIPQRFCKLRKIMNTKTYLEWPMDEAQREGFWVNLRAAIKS", "test": "Pull-down / in vitro interaction assay with TLR2", "format": "binding", "description": "Then, Strep-tagged AmTARS, AmTARS having deletions of two functional site (AmTARSΔ1Δ2), and FLAG-tagged TLR2 were transduced into human-derived HEK 293T cells through PEI, and thereafter, the cells were lysed using a lysis buffer containing 50 mM Tris-HCl (pH 7.5), 100 mM NaCl, 1% NP-40, 1 mM EDTA, 0.25% Na-deoxycholate, and a protease inhibitor cocktail. The cell lysates each were incubated with Strep Tactin beads and washed with a buffer containing 137 mM NaCl, 2.7 mM KCl, 10 mM Na2HPO4, 1.8 mM KH2PO4, and 1 mM EDTA, and proteins attached to the beads were eluted and analyzed by immunoblotting.\nIn addition, His-tagged AmTARS and FLAG-tagged protein were mixed at a ratio of 1:2, incubated with Ni-NTA beads, and then washed with a buffer containing 50 mM Tris-HCl (pH 8.0), 300 mM NaCl, 30 mM imidazole, and 1% NP-40, and the proteins attached to the beads were eluted and identified on SDS-PAGE gel."}, "BMDMs from TLR2-KO mouse": {"test_system": "BMDMs from TLR2-KO mouse", "test": "IL-10 production in BMDMs from TLR2 knock-out mice", "format": "cell-based", "description": "The TLR2-dependent immune function of AmTARS was further corroborated using TLR2 knock-out (KO) mice. […] However, IL-10 production by […] (U1/U2) was abolished in BMDMs from TLR2-KO mice, providing further evidence that AmTARS regulates host immune cells via its unique regions in a TLR2-dependent manner (FIG. 28D)."}, "BMDMs": {"test_system": "BMDMs", "test": "M2 macrophage polarization in BMDMs (CD206 flow cytometry)", "format": "cell-based, mouse", "description": "Since M2 macrophage polarization precedes production of anti-inflammatory cytokines such as IL-10, we assessed the effects of AmTARS on macrophage polarization. BMDMs were treated with PBS (negative control), LPS (to induce M1 polarization), or IL-4/IL-13 (to induce M2 polarization [positive control]) in the absence and presence of AmTARS, and the resulting M2 macrophage population was measured by flow cytometry using an antibody specific for the M2 macrophage surface marker CD206."}}, "data": [{"molecule": "B1", "values": [{"measurement": "colitis-induced body weight loss", "setting": "[1]; TLR2-KO mice", "value": "did not improve"}, {"measurement": "disease activity score", "setting": "[1]; TLR2-KO mice", "value": "did not improve"}, {"measurement": "B cells in the colon", "setting": "[1]; TLR2-deficient mice", "value": "did not show efficacy of increasing B cells in the colon"}, {"measurement": "amount of IgA", "setting": "[1]; TLR2-deficient mice", "value": "a significant change in the amount of IgA could not be observed"}, {"measurement": "increase in IL-10-secreting macrophage numbers", "setting": "[1]; colitis TLR2-KO mice", "value": "did not induce"}, {"measurement": "reduction in pro-inflammatory monocyte numbers", "setting": "[1]; colitis TLR2-KO mice", "value": "did not induce"}, {"measurement": "secretion of IL-6", "setting": "human macrophages (THP1)", "value": "not secreted"}, {"measurement": "secretion of IL-10", "setting": "human macrophages (THP1)", "value": "increased in a dose-dependent manner"}, {"measurement": "secretion of TNF-α", "setting": "human macrophages (THP1)", "value": "not secreted"}, {"measurement": "phosphorylation of protein kinase B (AKT)", "setting": "mouse adipocyte 3T3-L1; 3T3-L1, 100 nM insulin and 2 μM PMA, 24 h", "value": "again increased the phosphorylation"}, {"measurement": "S6 kinase (S6K)", "setting": "mouse adipocyte 3T3-L1; 3T3-L1, TNF-α, insulin", "value": "phosphorylated and activated"}, {"measurement": "glycogen synthase kinase (GSK)-3β", "setting": "mouse adipocyte 3T3-L1; 3T3-L1, TNF-α, insulin", "value": "phosphorylated and inhibited"}, {"measurement": "insulin receptor substrate (IRS)", "setting": "mouse adipocyte 3T3-L1; 3T3-L1, TNF-α, insulin", "value": "no significant change"}, {"measurement": "phosphorylation of AKT", "setting": "mouse adipocyte 3T3-L1; 3T3-L1, insulin resistance induced by 20 ng/ml TNF-α, 100 nM insulin", "value": "increased the phosphorylation"}, {"measurement": "interaction with TLR2 among candidates tested (pull-down)", "setting": "[2]; HEK 293T cells, Strep-AmTARS and TLR2-FLAG", "value": "interacted only with TLR2"}, {"measurement": "direct interaction with TLR2 (in vitro pull-down)", "setting": "[2]; purified TLR2-FLAG and His-tagged proteins, Ni-NTA", "value": "interacts directly with TLR2 via the U2-containing catalytic domain (CD)"}, {"measurement": "IL-10 production", "setting": "BMDMs from TLR2-KO mouse", "value": "did not induce IL-10 production"}, {"measurement": "M2 polarization (CD206+)", "setting": "BMDMs; LPS-treated BMDMs (M1 polarization)", "value": "significantly re-polarized LPS-induced M1 macrophages to M2 macrophages"}, {"measurement": "M2 polarization (CD206+)", "setting": "BMDMs; PBS-treated BMDMs", "value": "activated M2 polarization"}]}]}
